Source: the supplement of paper PMC9170038

Test system: K4 kissing-loop RNA reporter
Test: apparent KD of K4 kissing-loop reporter; higher = weaker reporter binding
Settings: Eterna round: R107
Method: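 RNA-MaP round R107: designed RNA switches with theophylline, tryptophan, arginine or FMN aptamers are transcribed on-chip within common flanks. They are titrated with a labelled K4 kissing-loop RNA reporter in RNA-MaP buffer (100 mM Tris pH 7.5, 80 mM KCl, 4 mM MgCl2), without ligand or with the indicated ligand. Median apparent KD per design.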

[1] = input ligand: theophylline 20 uM
[2] = input ligand: tryptophan 2.4 mM
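Also: bound reporter read as fluorescence of individual clusters on recovered sequencing chips by microscopy, with normalized cluster intensities fitted with a binding model.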

Row | Sequence | apparent KD of K4 kissing-loop reporter (input ligand: FMN 200 uM) | apparent KD of K4 kissing-loop reporter (input ligand: arginine 13.2 mM) | apparent KD of K4 kissing-loop reporter (input ligand: none) | apparent KD of K4 kissing-loop reporter [1] | apparent KD of K4 kissing-loop reporter [2]
1 | GUGUGUGUCGGAGGAUAUGCGAUAGAUGUAGGAGAAUUAGUGAUGUUAGUUAUGGUAGAGAUAGGAGUAGAAGGUUGGUGUGUGU [RHig 3/7 B] | 440 nM | 413 nM | 484 nM | 572 nM | 428 nM
2 | GUUAAGUCGCGAAGGAGCGCGAACUAACAACGCAGUGAUGUUGCGUUGUACGUAGUAUAAUCGCAGGUAGGUCGCGCGACAGGCC [Arg B SS t16] | 116 nM | 85.5 nM | 98.4 nM | 81 nM | 92.3 nM
3 | GUUACGCAUGGAAGGAGCGCAUGCUCAGCUAUAAGCUCAGUGAUGUUGAGCAUUUUUUUUUUGCAGGUAGGUCGCCAUGUGUAAC [Ex Arginine B K4 30] | 172 nM | 188 nM | 218 nM | 191 nM | 170 nM
4 | GUUACGCAUGGAAGGAGCGCGAAAAUUAAAUGUGAGUGAUGUUCACAAAUAAAUUAAAUAACGCAGGUAGGUCGCCAUGUGUAAC [Ex Arginine B K4 3] | 80.3 nM | 77.6 nM | 89 nM | 80.7 nM | 80.9 nM
5 | GUUAUCACGCGAAGGAGCGCGGAGCGAUAACGCAGUGAUGUUGCGUUAAACGUAAUAUAAUCGCAGGUAGGUCGCGCGUGAUACC [Arg B Ex t6] | 104 nM | 80.2 nM | 94.2 nM | 82.1 nM | 95.6 nM
6 | GUUAUGGACCUGGAUACCAGCUGGUACUAAGUGGGAAAAUGAAAGUGAUGUUUUCGUGCUAGCCCUUGGCAGCCAGCAACCCGCA [XTheo-B6] | 120 nM | 124 nM | 121 nM | 133 nM | 110 nM
7 | GUUCCCUACAAGGAUACCAGAACGUGUAGUCCGAGCGCUAGUGAUGUUGGCGUCUACCUCUUCCCUUGGCAGCCUGCAAAUCAGU [theeternabot_sameState_KL_Theo_B_48] | 269 nM | 155 nM | 236 nM | 217 nM | 200 nM
8 | GUUGACUACCAGAGGUGAUGUAUAGUAUCGCGAGGACCGGUACGGCCGCCACUCGUGAAGAGAAAGGAGUGAUGUUCCGUAAUGG [C9] | 222 nM | 254 nM | 322 nM | 340 nM | 122 nM
9 | GUUGGGUGGGUUAAAGAAUUUGUCUGACAACGAGGACCGGUACGGCCGCCACUCGAGUGAUGUUCGAGAAGAAAGAAAGAAAGAA | 66.4 nM | 123 nM | 95.4 nM | 146 nM | 126 nM
10 | UAAAUAAUAAAACGAGUGAUGUUCGACGAUACCAGCCUCGAUAGAGGCCCUUGGCAGCGUAAAUGAUCACAAAGCCAAGGAAUAA [#OpenEnded 1] | 158 nM | 174 nM | 158 nM | 192 nM | 134 nM
11 | UAAAUAAUAAAACGAGUGAUGUUCGACGAUACCAGCCUCGAUAGAGGCCCUUGGCAGCGUAUGUGAUCACUAAGCCAAGGAAUAA [#02 K4 Theophylline A Exclusion] | 164 nM | 175 nM | 167 nM | 196 nM | 132 nM
12 | UAAAUAAUUCAAGGAUAUGUUUUCUAUUUCGAGUGAUGUUCGGUCUUAAUAAAUUUAAUAGAUUAUACAGAAGGUGAUGGAUAGU [Astrostest] | 162 nM | 164 nM | 130 nM | 188 nM | 99.8 nM
13 | UAAGAACAGUCGGCCGCCACUUGAACUACAGAAGUAGGUAUAGCACCGUGAGUGAUGUUCACUGAAAGGACCGGGACUUGCUCCG [theeternabot_sameState_KL_Trp_B_30] | 476 nM | 310 nM | 399 nM | 430 nM | 574 nM
14 | UAAGAAUAAGUAGCAGUGAUGUUGCUACUACGAGGACCGGUACGGCCGCCACUCGAGCCGUACCAACUGCUACAAGGUACGAAUA [(H1)-(H2)-(Trp1)-(Trp2)-(T)'-(H)'-(T)''] | 281 nM | 224 nM | 242 nM | 243 nM | 257 nM
15 | UAAGAGGACCACUGCGAGAGUCCUCGAAUACGAGGACCGGUACGGCCGCCACUCGAUAACUUGCAGUGAUGUUGCAAGUAAGAAU [BrourdMod 3 - Jieux - Same State Tryptophan A] | 98.9 nM | 95.4 nM | 94.1 nM | 102 nM | 81 nM
16 | UAAGUAAGGGAUGAUACCAGAGAGUGAUGUUCUCAAGCGCUAUAGGAUAGCCUUAUCCACCUCCCUUGGCAGCAUACCCACUGGG [theeternabot_exclusion_KL_Theo_B_13] | 333 nM | 311 nM | 355 nM | 346 nM | 340 nM
17 | UAAUAGUAGACCAGGUCUACUAUUAGGGAUACCAGCCUCGGUCGAGGCCCUUGGCAGCCCAGCGGGUCCAGUGAUGUUGGAUGUC [Beoratri] | 400 nM | 284 nM | 371 nM | 207 nM | 342 nM
18 | UAAUCCUAGUGAUACUUAUCAAGUGGUGGGCGAGGACCGGUACGGCCGCCACUCGAAUAUGCAGUGAUGUUGUAAUCCGGAUAAU [Exclusion - Tryptophan A (Freestyle 8)] | 668 nM | 722 nM | 997 nM | 1500 nM | 397 nM
19 | UAAUGCAUGACGGCCGCCACUAGUACUGGAGUGAUGUUGUGGUACGGCGGCAAUAUAGGGUGGACUAGGACCGGGUCAUGCAUAU [KL-XTryp-B12 #analogue] | 403 nM | 336 nM | 346 nM | 380 nM | 432 nM
20 | UAAUUUAUAACUUUUAUAUAAUAAUCAGAUACCAGUGAUUAAUGUCACCCUUGGCAGCUGUAUAGAGUGAUGUUCUAAUGCUUAA [JR_SSTheophyA_Sub023] | 204 nM | 198 nM | 147 nM | 223 nM | 149 nM
21 | UACAUAUAAUUAUUUCUACAUUUAUUUAGUCAGGAUAUCGAUUAAACGAGAAGGGACAAUAUCAAGUGAUGUUUGAUAAUUCAAA [JR_ExcFMNA_Sub010] | 84.6 nM | 127 nM | 75.4 nM | 112 nM | 58.6 nM
22 | UACAUUGCAGUCUUCUUCGUCCUAGAAGACUAGGAUAUCAGGAAACUGAGAAGGAGUCUCUGCAGUGAUGUUGCAGCUAGGACGA [[K]'-[F2]'-[F1]'-[F1]-[F2]-[K1]-[K2]-[F]''_Design1] | 128 nM | 134 nM | 103 nM | 157 nM | 126 nM
